Measurements reported in publication PMC7920261.

Tests used:
[1] = target: SARS-CoV-2 spike receptor-binding domain (RBD) (SARS-CoV-2) (UniProt P0DTC2); assay: BLI
[2] = target: SARS-CoV-2 spike receptor-binding domain (RBD) (SARS-CoV-2) (UniProt P0DTC2); assay: ELISA
[3] = target: SARS-CoV-1 spike receptor-binding domain (RBD) (SARS-CoV-1); assay: BLI

| Substance | Kd [1] [µM] | IC50 [2] [µM] | Kd [3] [µM] |
| --- | --- | --- | --- |
| CTC-445, recombinant (designed binder) | 0.357 | 1.7 | – |
| CTC-445.2, recombinant (designed binder) | 0.021 | 0.0104 | 7.1 |
| CTC-445.2d (designed binder) | 0.0035 | 0.0007 | 0.587 |
